Positions count from the first letter of the chain named.
B1: VG9B429 (antibody, human IgG1, kappa)
heavy: not shown
light: DIQMTQSPSSVSASVGDRVTITCRASQGINSWLAWYQQKPGNAPKLLIYAASSLQSGVPSRFSGIGSGTDFIFTISSLQPEDFASYYCQQANSFPWTFGQGTRLEIKRTVAAPSVFIFPPSDEQLKSGTASVVCLLNNFYPREAKVQWKVDNALQSGNSQESVTEQDSKDSTYSLSSTLTLSKADYEKHKVYACEVTHQGLSSPVTKSFNRGEC
notes: IgG1, kappa
B2: VG9B414 (antibody, human IgG1, kappa)
heavy: not shown
light: B1 light with D1E, Q3V
notes: IgG1, kappa
B3: VG9B80 (antibody, human IgG1, kappa, V domains shown)
VH: EVQLVQSGGGLVKSGGSLRLSCAASGFTFSTYSMNWVRQAPGKGLEWVSSISSSSSYIFYADSVKGRIIISRDNAKNSLYLQMNSVRADDTAVYYCAKDGELGVFDYWGQGTLVTVSS
VL: EIVLTQSPGTLSLSAGERATLSCRASQSISSSYLAWYQQKPGQAPRVLIYGPSGRATGIPDRFRGSGSGTDFTLTISRLEPEDFAVYYCQQFGRSPLTFGGGTKVEIKR
notes: IgG1, kappa
B4: VG9B54 (antibody, human IgG1, kappa, V domains shown)
VH: EVQLVESGGGLVKPGGSLRLSCAASGFAFSSYSLTWVRQAPGKGLEWVSSISSSSSYIFYADSVKGRFTISRDNAKNSLYLQMNSLRAEDTAVYYCATDGELGPFDYWGQGTTVTVSS
VL: B3 VL with L4M, A15P, I29V, Y37F, V47R, P52A, G54S, R64S, F92Y
notes: IgG1, kappa
B5: VG9B430 (antibody, human IgG1, kappa, V domains shown)
VH: EVQLLESGGGLVKPGGSLRLSCSASGFTFSSYDMNWVRQAPGKGLEWVSSISSSSSYIYYADSVKGRFTISRDNAKNSLYLQMNSLRAEDTAVYHCARDVGVTTDYYYYGMDVWGQGTMVTVSS
VL: EIVLTQSPGTLSLSPGDRATLSCRASQSVASSYLAWYQQKPGQSPRLLIYGASSRATGIPDRFSGSGSGTDFTLTISRLEPEDFAVYYCQQYGSSPPYTFGQGTKLEIKR
notes: IgG1, kappa; also called antibody #19
B6: VG9B73 (antibody, human IgG1, kappa, V domains shown)
VH: EVQLVQSGGGLVKPGGSLRLSCAASGFTFSNYDMNWVRQAPGKGLEWVSSISSSSSYIYYADSVKGRFTISRDNARNSLFLQMSSLRAEDTAVYYCAREIGVTGTTYYQDYGMDVWGQGTTVTVSS
VL: B5 VL with L4M, D17E, V29F, A30S, S32N, S44A, V86L, Y98F, L106V
notes: IgG1, kappa; also called antibody #22
B7: VG9B98 (antibody, human IgG1, kappa, V domains shown)
VH: EVQLVQSGGDLVKSGGSLRLSCAASGFTFSSYSMYWVRQAPGKGLEWVSSIGSSSTYIFYADSVKGRFTISRDNAMTSLYLQMNRLGAEDSAVYYCARDGELGPFEYWGQGTLVTVSS
VL: EIVLTQSPGTLSLSPGERATLSCRASQSVSTSYLAWFQQKPGQAPRLLIFGTSSRATGIPDRFSGSGSGTDFTLTISRLEPEDFAVYHCLQYGRSPLTFGGGTKVDIKR
notes: IgG1, kappa; also called antibody #21
B8: VG9B428 (antibody, human IgG1, kappa)
heavy: not shown
light: B1 light with D1E, Q3V, R103K, L104V
notes: IgG1, kappa; also called antibody #18
B9: VG9B417 (antibody, human IgG1, kappa)
heavy: not shown
light: B1 light with Q3V, R103K, L104V
notes: IgG1, kappa; also called antibody #27
B10: VG9B421 (antibody, human IgG1, kappa)
heavy: not shown
light: B1 light
notes: IgG1, kappa; also called antibody #34
B11: VG9B384 (antibody, human IgG1, lambda, V domains shown)
VH: QVQLQESGPALVKPTQTLTLTCTFSGFSLSSSGMCVSWIRQPPGKALEWLTLIDWFDDKYYSTSLKTRLTISKDTSKNQVVLTMTNMDPVDTATYYCARIRGTGAYYYGLDVWGQGTMVTVSS
VL: SYELMQPPSVSVSPGQTASITCSGNELGDKYASWYQQQPGQSPVLVIYQDNKRPSGIPERFSGSNSGNTATLTISGTQAMDEADYYCQAWDSSKVVFGGGTKLTVLG
notes: IgG1, lambda; also called antibody #36
B12: VG9B58 (antibody, human IgG1, kappa, V domains shown)
VH: QVQLQESGPGLVKPSETLSLTCTVSGGSIKSSYWTWIRQPPGKGLEWIGYMFYLGSTNYNPSLKSRVTMSIDTSRNQFSLKLSSVTAADTAVYYCSRERPVLDAFDIWGQGTMVTVSS
VL: DIQMTQSPSAMSASVGDRVTITCRASQDITNYLAWFQQKPGKVPKRLIYAASSLQGGVPSRFSGSGSGTEFTLTISSLQPEDFSTYYCLQHDTYPYTFGQGTKVDIKR
notes: IgG1, kappa; also called antibody #28
B13: VG9B133 (antibody, human IgG1, kappa, V domains shown)
VH: EVQLVESGGGLVKPGGSLRLSCAAAGFTFSNYDMNWVRQVPGKGLEWVSSISSSSSYIYYADSVKGRFTISRDNAKNSLYLQMNTLRAEDTAVYYCARDLGITGTTMDYYYGMDVWGQGTMVTVSS
VL: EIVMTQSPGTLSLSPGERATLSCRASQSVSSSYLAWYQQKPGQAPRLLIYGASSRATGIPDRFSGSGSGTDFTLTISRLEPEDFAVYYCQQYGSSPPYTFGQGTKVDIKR
notes: IgG1, kappa; also called antibody #23
B14: VG9B472 (antibody, human IgG1, kappa, V domains shown)
VH: QVQLVESGGGLVKPGGSLRLSCAASGFTFSHYDMNWVRQAPGKGLEWVSSISSSSSYIFYADSVKGRFTISRDNAKNSLLLQMNSLRAEDTAVYHCARDRGVGDTSDYYSFGLDVWGQGTTVTVSS
VL: EIVLTQSPSSLSASVGDRVTITCRASQGIATYLAWYQQKPGKVPNLLIYAASTLQSGVPSRFSGSGSGTDFTLTISSLQPEDVATYYCQKYNSAPPWTFGQGTKVEIKR
notes: IgG1, kappa; also called antibody #33
B15: VG9B419 (antibody, human IgG1, kappa)
heavy: not shown
light: EIVLTQSPGTLSLSPGDRATLSCRASQSVASSYLAWYQQKPGQSPRLLIYGASSRATGIPDRFSGSGSGTDFTLTISRLEPEDFAVYYCQQYGSSPPYTFGQGTKVEIKRTVAAPSVFIFPPSDEQLKSGTASVVCLLNNFYPREAKVQWKVDNALQSGNSQESVTEQDSKDSTYSLSSTLTLSKADYEKHKVYACEVTHQGLSSPVTKSFNRGEC
notes: IgG1, kappa; also called antibody #29
B16: VG9B413 (antibody, human IgG1, kappa)
heavy: not shown
light: B15 light with L4M
notes: IgG1, kappa; also called antibody #37
B17: VG9B418 (antibody, human IgG1, kappa)
heavy: not shown
light: B15 light with V106L
notes: IgG1, kappa; also called antibody #32
B18: VG9B143 (antibody, human IgG1, lambda, V domains shown)
VH: EVQLVESGGGLVQPGGSLRLSCAASGFTFSTYGMNWVRQAPGKGLEWISYISTSSYTIYYSDSVKGRFTVSRDNAKNSLYLQMNSLRDEDTAVYYCAREGDWWYFDLWGRGTTVTVSS
VL: QSALTQPASVSGSPGQSITISCTGTSSDVGGYNYVSWYQQHPGKAPKLMIYEVSNRPSGVSYRFSGSKSGNTASLTISGLQAEDEADYYCSSYTSSSTLVFGGGTKLTVLG
notes: IgG1, lambda; also called antibody #31
B19: VG9B88 (antibody, human IgG1, kappa, V domains shown)
VH: EVQLVESGGGLVKPGGSLRLSCAVSGFTFSSYTMNWVRQAPGKGLEWVSSISTSSSYIDYADSVKGRFTISRDNAKKSLYLQMNSLRAEDTAVYYCARDGDMVAPIKGSFDYWGQGTLVTVSS
VL: EIVLTQSPLSLPVTPGEPASISCRSSQSLLNSDDGNTYLDWYLQKPGQSPQLLIYTLSYRASGVPDRFSGSGSGTDFTLKISRVEAEDVGVYYCMQRIEFPITFGQGTRLEIKR
notes: IgG1, kappa; also called antibody #35

target: γδ T cell receptor on human γδ T cells (AG000003021) (human); experiment: flow cytometry, DRC binding at 37°C on human γδ T cells
Experimental: (§1) Binding of antibodies to human γδ T cells or SKW cell lines expressing Vγ9/Vδ2, Vγ9/Vδ2 or Vγ5/Vδ2 was carried out by flow cytometry. Briefly, the cells were centrifuged at 300×g for 5 minutes and the pellet was resuspended in 34 ml fresh media (in RPMI+10% FBS). 50 μL of the cells were then plated (44K cells/well) into assay plates. Samples were incubated for one hour at 37° C. in tissue culture (TC) incubator followed by wash steps by adding 100 μl FACS staining buffer. Secondary detention antibodies (A647 conjugated anti-human IgG Fc specific antibody (2 μg/mL) along with AF488 anti mouse CD3, clone OKT3 at 1 ug/mL) were added at 50 μL/well to appropriate wells according to the plate map. After incubating for 60 minutes at 37° C. in the TC incubator, cells were again washed as described above. This is followed by resuspension in 20 μL/well running buffer containing 1:1000 dilution of Sytox blue dead cell stain and the plates were run on iQue Screener.
(§2) Gating and data analysis: Human anti-human Vγ9 antibody (VG9B2 mAb at 10 nM) was used to mark the gating of positive population. All cells were first gated for singlets on SCS-A vs. SCS-H dot plot, live/dead followed by CD3 positive population, and this subset of CD3 positive population was gated for Vγ9 positive binding using positive control mAb. Cells were also assessed for cell binding of control mAbs by RL1 (A647) Geomeans from the live cell population. Advanced metrics were used and normalization metrics were chosen to calculate fold over background wells containing secondary antibody alone (designated as ‘background’ within ForeCyt settings).

Binder | Max. Activity [fold over background]
B1 | 3640
B2 | 3300
B3 | 3480
B4 | 4290

target: T1, γδ T cell receptor on human γδ T cells (human); experiment: flow cytometry, dose-response binding at 37 C on human γδ T cells
T1 construct: also called AG000003021 (γδ T cells)
Experimental: as §1, §2

Binder | Max. Activity [fold over background]
B5 | 2970
B6 | 2840
B7 | 2880
B8 | 2980
B9 | 2700
B10 | 2610
B11 | 2550
B12 | 2690
B13 | 2840
B14 | 2620
B15 | 2690
B16 | 2470
B17 | 2630
B18 | 2630
B19 | 2560

— patent publication US20220125947A1 (published 2022)
